The target of test [1] is T1, Fcγ-receptor IIb (mice, UniProt P08101 30-330).
T1 construct: whole, on cells; HeLa cells transfected with an FcγRIIb plasmid, RFP-tagged; also called FcγRIIb; not shown: red fluorescent protein tag (RFP) attached to the intracellular portion
T1 sequence (looked up): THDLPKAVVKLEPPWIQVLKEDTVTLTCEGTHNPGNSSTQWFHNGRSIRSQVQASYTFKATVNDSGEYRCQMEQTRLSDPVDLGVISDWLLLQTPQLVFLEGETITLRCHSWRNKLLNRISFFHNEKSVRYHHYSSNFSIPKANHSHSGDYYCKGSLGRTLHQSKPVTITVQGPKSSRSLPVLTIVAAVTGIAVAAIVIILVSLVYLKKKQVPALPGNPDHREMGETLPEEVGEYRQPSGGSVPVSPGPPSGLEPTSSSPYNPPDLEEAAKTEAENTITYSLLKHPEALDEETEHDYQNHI
Description: flow cytometry saturation binding on HeLa cells expressing FcγRIIb; reference rabbit IgG. An excerpt: (§1) There are four Fc-gamma receptors (FcγRs) in mice including: Fcγ-receptor I, Fcγ-receptor III, Fcγ-receptor IV, and Fcγ-receptor IIb. The genes for each of the Fcγ-receptor I, Fcγ-receptor III, Fcγ-receptor IV, and Fcγ-receptor IIb were cloned into four separate plasmids. […] A red fluorescent protein tag (RFP) is attached to the intracellular portion of the FcγR (FIG. 56A). Thus, binding to the FcγR of a transfected HeLa cell will result in a signal transduction that causes the cells to fluoresce red, which may be measured by flow cytometry.
(§2) Polypeptides comprising a first and second Fc fragment of rabbit IgG in dimeric form and whole rabbit IgG were quantified by ELISA, using the whole rabbit IgG as the standards. HeLa cells that express FcγRI, HeLa cells that express FcγRIIb, HeLa cells that express FcγRIII, and HeLa cells that express FcγRIV as described in Example 13 were stained with 2-fold series diluted either with polypeptides comprising a first and second Fc fragment of rabbit IgG in dimeric form or whole rabbit IgG. The cells were then stained with Zenon Alexa Fluor 488 rabbit IgG labeling kits. […] The HeLa cells that express FcγRI, HeLa cells that express FcγRIIb, HeLa cells that express FcγRIII, and HeLa cells that express FcγRIV were gated by red fluorescence (RFP); and the mean fluorescence of Alexa Fluor was measured for the Saturation Binding Curves (FIGS. 61A-D).

For test [2], the target named is T2, Fcγ-receptor I (mice, UniProt P26151 25-404).
T2 construct: whole, on cells; HeLa cells transfected with an FcγRI plasmid, RFP-tagged; also called FcγRI; not shown: red fluorescent protein tag (RFP) attached to the intracellular portion
T2 sequence (looked up): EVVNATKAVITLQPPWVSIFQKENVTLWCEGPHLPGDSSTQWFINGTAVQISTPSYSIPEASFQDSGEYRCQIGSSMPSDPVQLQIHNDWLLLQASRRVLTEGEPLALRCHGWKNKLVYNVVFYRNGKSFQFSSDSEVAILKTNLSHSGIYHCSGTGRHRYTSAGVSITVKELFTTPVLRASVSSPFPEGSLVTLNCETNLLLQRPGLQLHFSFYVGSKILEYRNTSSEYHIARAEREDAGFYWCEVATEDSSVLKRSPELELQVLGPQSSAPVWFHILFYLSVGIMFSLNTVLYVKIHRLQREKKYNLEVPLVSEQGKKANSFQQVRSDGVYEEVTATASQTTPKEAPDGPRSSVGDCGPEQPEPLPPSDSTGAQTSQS
The test can be described thus: flow cytometry saturation binding on HeLa cells expressing FcγRI; reference rabbit IgG.
Description: as §1, §2
(In general: A flow cytometer gives signals particle by particle.)

Test [3] concerns the target T1, Fcγ-receptor IIb. Description: flow cytometry saturation binding on HeLa cells expressing RFP-tagged FcγRIIb (FIG. 61B, left panel).
Description: as §1, §2

Test [4] addresses T2, Fcγ-receptor I. Description: flow cytometry saturation binding on HeLa cells expressing RFP-tagged FcγRI (FIG. 61A, left panel).
Description: as §1, §2

For test [5], the target named is T3, Fcγ-receptor IV (mice).
T3 construct: whole, on cells; HeLa cells transfected with an FcγRIV plasmid, RFP-tagged; also called FcγRIV
T3 sequence (A0A0B4J1G0 whole entry, looked up): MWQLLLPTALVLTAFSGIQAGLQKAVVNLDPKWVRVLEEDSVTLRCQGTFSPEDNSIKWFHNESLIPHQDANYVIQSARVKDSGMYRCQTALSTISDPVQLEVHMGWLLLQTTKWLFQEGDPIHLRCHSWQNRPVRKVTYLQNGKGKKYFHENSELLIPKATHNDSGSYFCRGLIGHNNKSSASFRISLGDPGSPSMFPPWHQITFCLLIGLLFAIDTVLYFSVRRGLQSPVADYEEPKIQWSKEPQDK
Description: flow cytometry saturation binding on HeLa cells expressing FcγRIV; reference rabbit IgG.
Description: as §1, §2

Test [6] concerns the target T4, Fcγ-receptor III (mice, UniProt P08508 31-261).
T4 construct: whole, on cells; HeLa cells transfected with an FcγRIII plasmid, RFP-tagged; also called FcγRIII; not shown: red fluorescent protein tag (RFP) attached to the intracellular portion
T4 sequence (looked up): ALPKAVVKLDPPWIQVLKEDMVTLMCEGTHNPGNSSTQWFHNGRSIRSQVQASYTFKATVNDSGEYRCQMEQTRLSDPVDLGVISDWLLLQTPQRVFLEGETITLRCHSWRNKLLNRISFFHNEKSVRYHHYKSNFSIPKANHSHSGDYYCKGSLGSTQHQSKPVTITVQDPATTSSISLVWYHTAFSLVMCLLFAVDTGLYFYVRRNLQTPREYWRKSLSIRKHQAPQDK
Description: flow cytometry saturation binding on HeLa cells expressing FcγRIII; reference rabbit IgG.
Description: as §1, §2

Test [7] addresses T3, Fcγ-receptor IV. Description: flow cytometry saturation binding on HeLa cells expressing RFP-tagged FcγRIV (FIG. 61D, left panel).
Description: as §1, §2

For test [8], the target named is T4, Fcγ-receptor III. The test can be described thus: flow cytometry saturation binding on HeLa cells expressing RFP-tagged FcγRIII (FIG. 61C, left panel).
Description: as §1, §2

B1: polypeptide comprising a first and second Fc fragment of rabbit IgG in dimeric form (Fc fusion)
chain: GGSHHHHHHGMASMTGGQQMGRDLYDDDDKAPSTCSKPTCPPPELLGGPSVFIFPPKPKDTLMISRTPEVTCVVVDVSQDDPEVQFTWYINNEQVRTARPPLREQQFNSTIRVVSTLPIAHQDWLRGKEFKCKVHNKALPAPIEKTISKARGQPLEPKVYTMGPPREELSSRSVSLTCMINGFYPSDISVEWEKNGKAEDNYKTTPAVLDSDGSYFLYSKLSVPTSEWQRGDVFTCSVMHEALHNHYTQKSISRSPGKDIVRSSKPTCPPPELLGGPSVFIFPPKPKDTLMISRTPEVTCVVVDVSQDDPEVQFTWYINNEQVRTARPPLREQQFNSTIRVVSTLPIAHQDWLRGKEFKCKVHNKALPAPIEKTISKARGQPLEPKVYTMGPPREELSSRSVSLTCMINGFYPSDISVEWEKNGKAEDNYKTTPAVLDSDGSYFLYSKLSVPTSEWQRGDVFTCSVMHEALHNHYTQKSISRSPGK
notes: The supernatants hold monomeric and dimeric forms; also called dimeric polypeptides; polypeptides in dimeric form
With B1, the “fold enhancement of binding against rabbit IgG” value is no less than 61.7 fold in test [1], no less than 57.5 fold in test [2], no less than 191 fold in test [5] and no less than 223 fold in test [6]. The dissociation constant (Kd) in test [3] is no more than 9.8 nM; in test [4], no more than 3.5 nM; in test [7], no more than 6.3 nM; in test [8], no more than 10.4 nM.

The Kd is the equilibrium constant for the complex coming apart.

The values are drawn from patent publication US20140294817A1 (LEUKOSIGHT, published 2014).
